Numbering of substitutions follows the chain as printed.
What was measured:
[1] = molecular target: T1, mini-vRNAP, non-His-tagged (Bacteriophage N4, UniProt Q859P9 SEQ:2-1107); test: pulldown; DNA-affinity column; lower yield than SEQ 16; conditions: label: biotin; hairpin
T1 chain: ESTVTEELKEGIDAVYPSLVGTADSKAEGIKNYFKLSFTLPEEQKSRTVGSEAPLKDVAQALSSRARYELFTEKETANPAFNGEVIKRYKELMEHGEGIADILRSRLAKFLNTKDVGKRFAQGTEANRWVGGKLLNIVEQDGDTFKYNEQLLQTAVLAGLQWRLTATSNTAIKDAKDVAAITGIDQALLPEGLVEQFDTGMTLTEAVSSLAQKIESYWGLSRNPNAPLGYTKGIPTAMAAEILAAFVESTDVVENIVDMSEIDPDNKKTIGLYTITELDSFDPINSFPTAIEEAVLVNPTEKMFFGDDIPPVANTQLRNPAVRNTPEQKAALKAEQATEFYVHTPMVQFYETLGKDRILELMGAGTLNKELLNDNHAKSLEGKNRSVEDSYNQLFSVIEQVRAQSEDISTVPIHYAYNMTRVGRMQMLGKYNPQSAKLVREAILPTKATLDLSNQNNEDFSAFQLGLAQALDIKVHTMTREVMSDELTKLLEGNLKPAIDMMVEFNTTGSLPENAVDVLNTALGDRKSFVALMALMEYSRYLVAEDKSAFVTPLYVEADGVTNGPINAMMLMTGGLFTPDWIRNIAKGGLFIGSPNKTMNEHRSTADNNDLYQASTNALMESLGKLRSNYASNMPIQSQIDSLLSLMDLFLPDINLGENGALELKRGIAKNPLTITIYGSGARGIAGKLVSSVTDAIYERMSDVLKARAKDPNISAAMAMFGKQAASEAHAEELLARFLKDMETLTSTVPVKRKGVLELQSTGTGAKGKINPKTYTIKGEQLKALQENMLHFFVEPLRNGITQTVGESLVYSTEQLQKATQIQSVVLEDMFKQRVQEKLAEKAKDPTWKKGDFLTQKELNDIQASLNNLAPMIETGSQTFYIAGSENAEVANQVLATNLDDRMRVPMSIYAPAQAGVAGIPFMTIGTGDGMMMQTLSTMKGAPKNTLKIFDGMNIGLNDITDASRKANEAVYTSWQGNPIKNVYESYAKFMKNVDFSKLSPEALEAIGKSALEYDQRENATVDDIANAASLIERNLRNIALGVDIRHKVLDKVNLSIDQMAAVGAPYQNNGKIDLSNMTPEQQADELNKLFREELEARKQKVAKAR
Method: (§1) This property was used for purification of non-his tagged mini-vRNAP (SEQ ID NO:4) on a DNA-affinity column. The column was prepared by adsorbing a 5′ biotinylated N4 promoter-containing DNA oligonucleotide onto the matrix of a 1 ml HiTrap Streptavidin column (Pharmacia/Amersham Cat.#17-5112-01) according to the manufacturer's instructions. A debris-free sonicate of bacterial cells expressing mini-vRNAP was passed through the column. […] Nucleases in the extract are inhibited by addition of 2 mM EDTA. After washing the column, mini-vRNAP was eluted with warm (25° C.) water; the elution temperature was raised from 4° C. to 25° C. to increase mini-vRNAP recovery. For complete elution, the temperature can be raised up to 43° C. without significant change in the quality of the preparation. Elution under these conditions occurs due to the removal of metal ions and consequent melting of the promoter hairpin and dissociation of mini-vRNAP. Different DNA oligonucleotides containing variants of the P2 promoter (SEQ ID NOS:16-19), were used in DNA-affinity columns and tested in mini-vRNAP affinity purification. The best yield was achieved using the DNA oligonucleotide of SEQ ID NO:16. […]

[2] = molecular target: T2, mini-vRNAP (N4 virion RNA polymerase central domain) (Bacteriophage N4, UniProt Q859P9 SEQ:38-1143); test: filter; wild type affinity; crosslinks; conditions: tags: N-terminal His6 (pBAD B); TALON and MonoQ; label: 32P; hairpin
T2 chain: T1 chain
Description: To study the sequence determinants of promoter binding, 20 base-long promoter oligonucleotides, containing the wild type vRNAP promoter P2 sequence and substituted at every position with a single 5-Iodo-dU, were used. Whenever substitutions were made in the stem, the corresponding pairing base was changed to A. These oligonucleotides were ³²P end-labeled and used to determine the enzyme's affinity for promoter DNAs by a filter binding assay and the ability to crosslink to mini-vRNAP upon UV irradiation at 320 nm.

[3] = molecular target: T2, mini-vRNAP (N4 virion RNA polymerase …); test: filter; no binding when loop cannot form; conditions: tags: N-terminal His6 (pBAD B), TALON and MonoQ
Method: (§2) The effect of changes in the stem length of the hairpin on the ability of mini-vRNAP to bind P2 promoter DNA was analyzed. […] The stem can be shortened by two base pairs without change in the binding affinity. […] No binding is observed if one more nucleotide is removed and the loop cannot form.

mini-vRNAP Y678F = molecular target: T3, mini-vRNAP Y678F (Bacteriophage N4, UniProt Q859P9 SEQ:38-1143); test: UV crosslinking as well as wild type enzyme; conditions: tags: N-terminal His6; label: 32P; hairpin
T3 chain: T1 chain with Y678F

[4] = molecular target: T2, mini-vRNAP (N4 virion RNA polymerase …); test: filter; range given for two or one remaining loop-closing bp; conditions: tags: N-terminal His6 (pBAD B), TALON and MonoQ, hairpin
Method: as §2

[5] = molecular target: T1, mini-vRNAP, non-His-tagged; test: pulldown; DNA-affinity column; elutes at lower temperature than SEQ 16; conditions: label: biotin
Method: as §1

[6] = molecular target: T1, mini-vRNAP, non-His-tagged; test: pulldown; DNA-affinity column, pH 5-9, 50 mM-2 M NaCl, 2 mM EDTA in extract; best yield; conditions: label: biotin; hairpin
Method: as §1

[7] = molecular target: T2, mini-vRNAP (N4 virion RNA polymerase …); test: filter; two orders of magnitude reduction; conditions: tags: N-terminal His6 (pBAD B); TALON and MonoQ; hairpin, 8 bp stem
[8] = molecular target: T2, mini-vRNAP (N4 virion RNA polymerase …); test: filter; stem shortened by two bp, affinity unchanged; conditions: tags: N-terminal His6 (pBAD B); TALON and MonoQ; hairpin, 3 bp stem
Method: as §2

[9] = molecular target: T2, mini-vRNAP (N4 virion RNA polymerase …); test: filter; stem lengthened by two bp, affinity unchanged; conditions: tags: N-terminal His6 (pBAD B); TALON and MonoQ; hairpin, 7 bp stem

B1: P2 affinity oligo SEQ 18 (ssDNA)
DNA: GGATCCAAAAGAAGCGGAGCTTC
modifications: 5' biotin
Q: Does B1 bind [1]?
A: binds

B2: P2 20-mer 5-iodo-dU at +2 (ssDNA)
DNA: TCCAAAAGAAGCGGAGCTTC
modifications: 5-iodo-dU at +2
Q: Does B2 bind [2]?
A: binds

B3: P2 without stem (ssDNA)
DNA: TCCAAAAGAAGCGGA
Q: Does B3 bind [3]?
A: no binding

B4: P2 20-mer 5-iodo-dU at -11 (ssDNA)
DNA: TCCAAAAGAAGCGGAGCTTC
modifications: 5-iodo-dU at -11 (loop centre)
Q: Does B4 bind (mini-vRNAP Y678F)?
A: binds

B5: P2 20-mer 5-iodo-dU at +1 (ssDNA)
DNA: TCCAAAAGAAGCGGAGCTTC
modifications: 5-iodo-dU at +1
Q: Does B5 bind [2]?
A: binds

B6: P2 stem shortened to 2 bp (ssDNA)
DNA: TCCAAAAGAAGCGGAGC
Q: With B6 as the binder, how does the Kd ([4]; 2 bp stem) read?
A: 4.47 nM

B7: P2 affinity oligo SEQ 20 (shortened stem) (ssDNA)
DNA: GGCATTACTTCATCCAAAAGAAGCGGAGC
modifications: 5' biotin
Q: Does B7 bind [5]?
A: binds

B8: P2 affinity oligo SEQ 16 (ssDNA)
DNA: GGCATTACTTCATCCAAAAGAAGCGGAGCTTC
modifications: 5' biotin
Q: Does B8 bind [6]?
A: binds

B9: P2 affinity oligo SEQ 19 (loop/stem variant) (ssDNA)
DNA: B8 DNA with G25T
modifications: 5' biotin
Q: Does B9 bind [5]?
A: binds

B10: P2 affinity oligo SEQ 17 (ssDNA)
DNA: GGCCATCCATTACTTCATCCAAAAGAAGCGGAGCTTC
modifications: 5' biotin
Q: Does B10 bind [1]?
A: binds

B11: P2 stem lengthened, base paired to -2 (ssDNA)
DNA: TCCAAAAGAAGCGGAGCTTCTTT
modifications: [none]
Q: Which binding signal [7] does the source give for B11 here?
A: ~100 fold lower affinity

B12: P2 stem shortened to 3 bp (ssDNA)
DNA: TCCAAAAGAAGCGGAGCT
Q: With B12 as the binder, how does the Kd [8] read?
A: ~1 nM

B13: P2 20-mer 5-iodo-dU at +3 (ssDNA)
DNA: TCCAAAAGAAGCGGAGCTTC
modifications: 5-iodo-dU at +3
Q: Which results are given for B13?
A: binding result (mini-vRNAP Y678F): binds; binding result [2]: binds

B14: P2 stem shortened to 1 bp (ssDNA)
DNA: TCCAAAAGAAGCGGAG
Q: With B14 as the binder, how does the Kd ([4]; 1 loop-closing bp) read?
A: 4.47 nM

B15: P2 stem lengthened to 7 bp (ssDNA)
DNA: TCCAAAAGAAGCGGAGCTTCTT
modifications: [none]
Q: Which Kd [9] does the source give for B15 here?
A: ~1 nM

Reference: patent US20030096349, “N4 virion single-stranded DNA dependent RNA polymerase” (The University of Chicago, published 2003)
